According to the nanobody polyreactivity screen of Harvey et al. (2022):

experiment: yeast display, Sf9 membrane polyspecificity reagent, FACS + sequencing; frameworks hold sequencing errors
Procedure, shortened: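 Galactose-induced (36–48 hours) yeast carrying a synthetic nanobody display library were exposed to 10% biotinylated, detergent-solubilized Sf9 membrane reagent at 4 °C for 1 hour. FACS followed streptavidin microbead enrichment, using low and high (top ~1%) gates for expression (anti-HA) and reagent binding (streptavidin). Colony PCR, MiSeq 2 × 250 sequencing and CDR-length filtering followed. Labels for polyreactivity reflect the gate of origin.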

Row | Sequence | polyreactivity (PSR sort gate)
1 | QVQLVESGGGIVQAGGSLRLSCAASGRTFRRYVMGWYRQAPGKERELVAAITVSGGNTYYADSVKGSFTISRDNAKNTVYLQMNSLKPEDTAVYYCNADAGAIYYRRYHFYYWGQGTQVTVSS | low polyreactivity
2 | QVQLVESGGGLVQAGGSLRLSCAASGSTIRYYAMGWYRQAPGKERELVAANTKSGGSTYYADSVKGRFTISRDNAKNTVYLQMNSPKPEDTAVYSCAAVRRWYYPALSEHDYWGQGTQVTVSS | low polyreactivity
3 | QVQLVESGGGLVQAGGSLRLSCAASGSIFRAYAMGWYRQAPGKERELVAAISWGGGSTSYADSVKGRFTISRDNAKNTVYLQMNSLKPEDTAVYYCNKVSFSKRRDYYWGQGTQVTVSS | high polyreactivity
4 | QVQLVESGGGLVQAGGSLRLSCAASGRTFFPYAMGWYRQAPGKERELVATIRYRGGSTSYADSVKGRFTISRDNAKNTVYLQMNSLKPEDTAVYYCAARLQRTPRVYSSYFEYDYWGHGTQVTVSS | low polyreactivity
5 | QVQLVESGGGLVQAGGSLRLSCAASGRILKYYDMGWYRQAPGKERELVAAISVSGTSTYYADSVKGRFTISRDNAKNTVYLQMNSLKPEDTAVYYCATATGRYSFDYWGQGTQVTVSS | low polyreactivity
6 | QVQLVESGGGLVQAGGSLRLSCAASGRIFPAYVMGWYRQAPVKERELVATIDNGGGTYYADSVKGRFTISRDNAKNTVYLQMNSLKPEDTAVYYCARDRHVRWGLKMDYWGLGTQVTVSS | low polyreactivity
7 | QVQLVESGGGLVQAGGSLRLSCAASGYTFKTYAMGWYIQAPGKERELVAAISGSGGSTYYADSVMGRFTISRDNAKNTVYLQLKSLKPEDTEVYYCAATNWWGTEYDYWGQGTQVTVSS | high polyreactivity
8 | QVQLVESGGGLVQAGGRLRLNCAASVITFPYNAMGWYRQATGKERELVAAITRSGASTYYADSVKGRFTISRDNSKNTVYVQMNSLKPEDTAVYYCAAKVIGRPRPYYYWGQGTQVTVSS | high polyreactivity
9 | QVQLVESGGGLVQAGGSLRLSCAASGSTFTGNAMGWYRQAPGKERELVAAISRSGGRTYYADSVKGRFTISRDNAKNTVYLQMNILKPEDTGVYYCNAVRNRGQRTAFDYWGQGTQVTVSS | high polyreactivity
10 | QVQLVESGGGLVQAGGSLRLSCAASGSIFDLYAMGWYRQAPGKERELVAAINSGGSTYADSVKGRFTISRDNSKNTVYLQMNSLKPEDTAVYYCNADYRHSLGSGYDYWGQVTQVTVSS | low polyreactivity
11 | QVQLVESAGGLVQAGGSLRLSCAASGFTFYGYAMGAYSQAPGKERELVAAITSGGSTNYADAVKGRFTISRDNAKNTVYVQLNSLKPEDTAVYHCAAVWVANTARYSDTFGYWGQGTQVTVSS | high polyreactivity
12 | QVQLVESGGGLVQAGGSLRLSCAASGSIFSIYAMGWYRQAPGKERELVAAISWNGGSTYYADSVKGRFTISRDNAKNTVYLQMNSLKPEDTAVYYCAVDEGPTKVRFGYWGQGTQVTVSS | high polyreactivity
13 | QVQLVESGGRLVQAGGSLRLSCAASGSTFTKYALGWYRPAPGKERELVAAISRSGGSTYYADSVKGRFSISRDNAKNTVYLQMNSLKPEDTAVYYCAARDSSRNYFGDGARDYWGQCTQVTVSS | high polyreactivity
14 | QVQLVESGGGLVQAGGSLRLSCAASGFTFGANVMGWYRQAPGKERQLVAGITWSGDSTYYADSVKGRFTISRDNAKNTVYLQMNSLKPEDTAVYYCAADVYDGEYILDYDYWGQGTQVTVSS | low polyreactivity
15 | QVQLVESGGGLVQAGGSLRLSCAASGRIFAQYAMGWYRQAPGKERELVADISSGVRTNADSVKGRFTISRDNAKNSVYLQMNSLKPEDTAVSYCNAYYIIFTRNDYWGQGTQVTVSS | low polyreactivity
16 | QVQLVESGGGLVQAGGSLRLSCAASGFIFLYNAMGWYRQAPGKERELVAAITSSGGTTYYADSVKGRFTISRDNAKNTVYLQMNSLKPEDTAVYYCAARYTGRNGGSTTPEYDYWGQGTQVTVSS | low polyreactivity
17 | KVQLVESGGGLVQAGGSIRLSCDASGRSFYYYAMGWYRQAPGKEREWVAAINTRGTSTYYADSVKGRFTISRDNAKNTVYLQMNSLKPEDTAVYYCAVDPYGDSWEDWFRNYYYGYDYWGQGTQGTVSS | low polyreactivity
